In the supplement of paper PMC9170038:

test system: MS2 coat protein; test: apparent KD of MS2 coat protein, switch ON state; designed switch direction (-1 OFF switch, 1 ON switch): -1; higher = weaker reporter binding; settings: FMN input: 0 or 200 uM; Eterna round: R93 (includes R88 designs)
Summary of the method: (§1)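 SNAP-549-labelled MS2 coat protein was titrated onto designed RNA switches that had been transcribed on-chip from Illumina sequencing clusters. Amounts doubled from 0.7 or 1.5 nM to 3 µM in 100 mM Tris-HCl pH 7.5, 80 mM KCl, 4 mM MgCl2, with constant ligand or without. Apparent KD is the median per design of normalised cluster binding-curve fits.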

Sequence | apparent KD of MS2 coat protein
AGCUAGUCAGGAUAUACGAACAUGUCAGAAGACGUGAAGGGACAUGAGGAUCACCCAUGUAGAAGGGACUAGCA [74%, Web mod - With 1 more G's] | 31.9 nM
AAAACUGGAGGAUAUACGUACAUGUCAAAAGACGUGAAGGGACAUGAGGAUCACCCAUGUAGAAGGCUAGAAAA [JL Stem Breaker 8] | 74.2 nM
AAAAAACAUGAGGAUCACCCAUGUCAGGAUAUGCUCAGCAAUAUUAAAAUAAAGAACGGUAGAAGGGACAGAAA [Bilbo Confounded 23 - Jieux - Exclusion 1] | 35.8 nM
ACCAAUGCAGGAUAUACAUGAGGAUCACCCAUGUAUAACCUACAUAGAUGAUAAAAAUGUAGAAGGGCAUUGGA [EX3 232: Super Stable 32] | 16 nM
CGUUGGCGAGGAUAUACAUGAGGAUCACCCAUGUGAGAGAAAAAAGUGAGAAAGAAAAGUAGAAGGCGCUGACU [salish99-ex3-11] | 43.6 nM
ACAGUUACAGGAUAUACAUGGGAAAAUAAAAAUAAAAAACUACAUGAGGAUCACCCAUGUAGAAGGGUAACUGA [Ex2 Design 198: Random 13] | 77.5 nM
AAAAAAAAAGGAUAUACAGGAGGUAAGGUCGGACAAAAAAAACAUGAGGAUCACCCAUGUAGAAGGUUUAAAAA [Excls2-IX] | 34.5 nM
AGUCGGCGAGGAUAUACAUGAGGAUCACCCAUGUGAGAGAAAAAAGUGAGUCAGAAAAGUAGAAGGCGCUGACA [JL Lego Mod 4] | 63.4 nM
AAAAAACAUGAGGAUCACCCAUGUAAGGAUAUGCUAUGGAAAAUAAAAAUAAAACAUAGCAGAAGGUACACCAA [Amethyst 81] | 18.9 nM
GAAACUGGAGGAUAUACGUACAUGUCAAAAGACGUGAAGGGACAUGAGGAUCACCCAUGUAGAAGGCUAGAAAG [Mat - Exclusion 2 - JL mod - D97] | 70.6 nM
AAAAGCUCAGGAUAUACGGUCUGUUGUUGAGAAAUAUCGAAACAUGAGGAUCACCCAUGUAGAAGGGAGCGAAA [Exclusion2-cac2] | 108 nM
ACGUGACAUGAGGAUCACCCAUGUUAGGAUAUGCGAAUUCAAAAUCAGCUAACGCUGAGCAGAAGGAACAUGGU [Esriange] | 36.2 nM
AAAAAGCUAGGAUAUACAUGAAAAAAAAAAAAGUAAAAAAAACAUGAGGAUCACCCAUGUAGAAGGAGCAAAAA [water's exclusion 2 last] | 40.4 nM
AAAAUACAUGAGGAUCACCCAUGUGAGGAUAUGCGAAUAAAAAUAAAAUAAAAUAAAAGCAGAAGGCACGAAAA [EX 1 May 24] | 33.4 nM
AGGAAACAUGAGGAUCACCCAUGUGAGGAUAUACAAAAGAAAAGAAAAGAAAGAAGAAGUAGAAGGUACAAGAA [Djedkare Isesi] | 21.7 nM
AGAAAACAUGAGGAUCACCCAUGUGAGGAUAUCGAUGUCCAAAAAAAAGUGCGGACCUCGAGAAGGCACAUUGG [Mod of Erbelaed v.3 (favor state 2,lowered kcal by 1)] | 49.5 nM
GAAACACAUGAGGAUCACCCAUGUCAGGAUAUGUAGAUAAAAAGAAAAUAAAAUAAAAACAGAAGGGACAAAAG [Mat - Same state - Mayanna Mod - D103] | 64.4 nM

Sequence | apparent KD of MS2 coat protein
AAAAAACAUGAGGAUCACCCAUGUUAGGAUAUCCUGCAGAAAAAAAAAAAAAACUGCAGGAGAAGGAGCAAGGA [Banishment 3 - Jieux - Exclusion 1] | 25.8 nM
AAAAAGUCAGGAUAUAGAAAAGGUCACGAAAGUGACAAAGGCUAGAAGGGACAUGAGGAUCACCCAUGUAAAAA [Mat - Mod of Eli] | 53.5 nM
AAAAAACAUGAGGAUCACCCAUGUGAGGAUAUGAUGCGAAUAAAGAAAGAAGAAAGCAUCAGAAGGCACACCUA [Disincluded 3 (MS2 Riboswitches)] | 26.3 nM
UCCUGACAUGAGGAUCACCCAUGUCAGGAUAUGCAUCUUAGGAAAAAAAAACUAAGAUGCAGAAGGGACAUGGG [Design 1: Super Stable] | 26.9 nM
UCCAGACAUGAGGAUCACCCAUGUCAGGAUAUCUAGAAAACCUCAUGUAAAAAAAACUAGAGAAGGGAUAUGAA [Design 96: Pseudoknot F] | 19.6 nM
AGUUGGCGAGGAUAUACAUGAGGAUCACCCAUGUGAGAGUAAGAAGUGAGAAAGAGAAGUAGAAGGCGCUGACA [Ruby 55] | 46.5 nM
AAAGUGUGAGGAUAUGUCAAAGGUCACGAAAGUGACAAAGGGCAGAAGGUACAUGAGGAUCACCCAUGUAAAAA [Opal 1] | 24 nM
AAAAAACAUGAGGAUCACCCAUGUGAGGAUAUCGGAAAAGGAAAAAAAAAAAAGAAGACGAGAAGGCACACCAA | 28.6 nM
AAGAAGGCAGGAUAUACUAAAGAAAUGAAAAGAAAUAAAGAACAUGAGGAUCACCCAUGUAGAAGGGCCAAGAA [Khakherewre] | 35.2 nM
AAAAAGUGAGGAUAUACAUGAGGAUCACCCAUGUUAAAAAAGGAAAAAAAAAAAAAAUGUAGAAGGCGCAAAAA [water's exclusion 3] | 36.9 nM
AUAAUGCGAGGAUAUACAUGAGGAUCACCCAUGUAAAUAAAUAGGAGAGCCACAUUAAGUAGAAGGUGCAUUAA [JR_Exc003_Sub501] | 32.8 nM
CUCUUGUGAGGAUAUUCAAGAAAAGAAGAGAAAGAAAAGAAGAAGAAGGCACAUGAGGAUCACCCAUGUAAGAA [EteRNA is fun!] | 25 nM
AGUUGGCGAGGAUAUACAUGAGGAUCACCCAUGUGAGAGAAAUAAGUGAGAAAGAAAAGUAGAAGGCGCUAACA [JL Lego Mod 18] | 53.5 nM
AACUGGGCAGGAUAUACAUGAGGAUCACCCAUGUAAAGAAAAGAAAGAUCCGAGGAAAGUAGAAGGGCCUGGAA [Variant 4 of Mod 1 of Ex3 sub 3, by Tesla's Dusciple Round 1] | 55.6 nM
CCCAUGUCAGGAUAUCAGUAGUAAAAAAAAAAAAUUACUACUGAGAAGGGACAUGAGGAUCACCCAUGUCACUU [EX4 320: Super Stable 20] | 74.9 nM
AUAGGCCUAGGAUAUACAUGAGGAUCACCCAUGUUAACACUUCAAUCAAGUUAAUAGUGUAGAAGGAGGAAUAA [JR_Exc003_Sub308] | 29.3 nM

test system: MS2 coat protein; test: apparent KD of MS2 coat protein, switch OFF state (with FMN for OFF switches, without FMN for ON switches); designed switch direction (-1 OFF switch, 1 ON switch): -1; higher = weaker reporter binding; settings: FMN input: 0 or 200 uM; Eterna round: R93 (includes R88 designs)
Summary of the method: as §1

Sequence | apparent KD of MS2 coat protein
AGCUAGUCAGGAUAUACGAACAUGUCAGAAGACGUGAAGGGACAUGAGGAUCACCCAUGUAGAAGGGACUAGCA [74%, Web mod - With 1 more G's] | 102 nM
AAAACUGGAGGAUAUACGUACAUGUCAAAAGACGUGAAGGGACAUGAGGAUCACCCAUGUAGAAGGCUAGAAAA [JL Stem Breaker 8] | 28.6 nM
AAAAAACAUGAGGAUCACCCAUGUCAGGAUAUGCUCAGCAAUAUUAAAAUAAAGAACGGUAGAAGGGACAGAAA [Bilbo Confounded 23 - Jieux - Exclusion 1] | 34.7 nM
ACCAAUGCAGGAUAUACAUGAGGAUCACCCAUGUAUAACCUACAUAGAUGAUAAAAAUGUAGAAGGGCAUUGGA [EX3 232: Super Stable 32] | 20.3 nM
CGUUGGCGAGGAUAUACAUGAGGAUCACCCAUGUGAGAGAAAAAAGUGAGAAAGAAAAGUAGAAGGCGCUGACU [salish99-ex3-11] | 132 nM
ACAGUUACAGGAUAUACAUGGGAAAAUAAAAAUAAAAAACUACAUGAGGAUCACCCAUGUAGAAGGGUAACUGA [Ex2 Design 198: Random 13] | 26.6 nM
AAAAAAAAAGGAUAUACAGGAGGUAAGGUCGGACAAAAAAAACAUGAGGAUCACCCAUGUAGAAGGUUUAAAAA [Excls2-IX] | 19.8 nM
AGUCGGCGAGGAUAUACAUGAGGAUCACCCAUGUGAGAGAAAAAAGUGAGUCAGAAAAGUAGAAGGCGCUGACA [JL Lego Mod 4] | 41.6 nM
AAAAAACAUGAGGAUCACCCAUGUAAGGAUAUGCUAUGGAAAAUAAAAAUAAAACAUAGCAGAAGGUACACCAA [Amethyst 81] | 27.3 nM
GAAACUGGAGGAUAUACGUACAUGUCAAAAGACGUGAAGGGACAUGAGGAUCACCCAUGUAGAAGGCUAGAAAG [Mat - Exclusion 2 - JL mod - D97] | 21.9 nM
AAAAGCUCAGGAUAUACGGUCUGUUGUUGAGAAAUAUCGAAACAUGAGGAUCACCCAUGUAGAAGGGAGCGAAA [Exclusion2-cac2] | 269 nM
ACGUGACAUGAGGAUCACCCAUGUUAGGAUAUGCGAAUUCAAAAUCAGCUAACGCUGAGCAGAAGGAACAUGGU [Esriange] | 88.9 nM
AAAAAGCUAGGAUAUACAUGAAAAAAAAAAAAGUAAAAAAAACAUGAGGAUCACCCAUGUAGAAGGAGCAAAAA [water's exclusion 2 last] | 37 nM
AAAAUACAUGAGGAUCACCCAUGUGAGGAUAUGCGAAUAAAAAUAAAAUAAAAUAAAAGCAGAAGGCACGAAAA [EX 1 May 24] | 32.8 nM
AGGAAACAUGAGGAUCACCCAUGUGAGGAUAUACAAAAGAAAAGAAAAGAAAGAAGAAGUAGAAGGUACAAGAA [Djedkare Isesi] | 24.7 nM
AGAAAACAUGAGGAUCACCCAUGUGAGGAUAUCGAUGUCCAAAAAAAAGUGCGGACCUCGAGAAGGCACAUUGG [Mod of Erbelaed v.3 (favor state 2,lowered kcal by 1)] | 51.1 nM
GAAACACAUGAGGAUCACCCAUGUCAGGAUAUGUAGAUAAAAAGAAAAUAAAAUAAAAACAGAAGGGACAAAAG [Mat - Same state - Mayanna Mod - D103] | 76.3 nM

Sequence | apparent KD of MS2 coat protein
AAAAAACAUGAGGAUCACCCAUGUUAGGAUAUCCUGCAGAAAAAAAAAAAAAACUGCAGGAGAAGGAGCAAGGA [Banishment 3 - Jieux - Exclusion 1] | 44.5 nM
AAAAAGUCAGGAUAUAGAAAAGGUCACGAAAGUGACAAAGGCUAGAAGGGACAUGAGGAUCACCCAUGUAAAAA [Mat - Mod of Eli] | 28.8 nM
AAAAAACAUGAGGAUCACCCAUGUGAGGAUAUGAUGCGAAUAAAGAAAGAAGAAAGCAUCAGAAGGCACACCUA [Disincluded 3 (MS2 Riboswitches)] | 59.9 nM
UCCUGACAUGAGGAUCACCCAUGUCAGGAUAUGCAUCUUAGGAAAAAAAAACUAAGAUGCAGAAGGGACAUGGG [Design 1: Super Stable] | 36.3 nM
UCCAGACAUGAGGAUCACCCAUGUCAGGAUAUCUAGAAAACCUCAUGUAAAAAAAACUAGAGAAGGGAUAUGAA [Design 96: Pseudoknot F] | 15.7 nM
AGUUGGCGAGGAUAUACAUGAGGAUCACCCAUGUGAGAGUAAGAAGUGAGAAAGAGAAGUAGAAGGCGCUGACA [Ruby 55] | 220 nM
AAAGUGUGAGGAUAUGUCAAAGGUCACGAAAGUGACAAAGGGCAGAAGGUACAUGAGGAUCACCCAUGUAAAAA [Opal 1] | 19.9 nM
AAAAAACAUGAGGAUCACCCAUGUGAGGAUAUCGGAAAAGGAAAAAAAAAAAAGAAGACGAGAAGGCACACCAA | 25.1 nM
AAGAAGGCAGGAUAUACUAAAGAAAUGAAAAGAAAUAAAGAACAUGAGGAUCACCCAUGUAGAAGGGCCAAGAA [Khakherewre] | 24.1 nM
AAAAAGUGAGGAUAUACAUGAGGAUCACCCAUGUUAAAAAAGGAAAAAAAAAAAAAAUGUAGAAGGCGCAAAAA [water's exclusion 3] | 36 nM
AUAAUGCGAGGAUAUACAUGAGGAUCACCCAUGUAAAUAAAUAGGAGAGCCACAUUAAGUAGAAGGUGCAUUAA [JR_Exc003_Sub501] | 84.7 nM
CUCUUGUGAGGAUAUUCAAGAAAAGAAGAGAAAGAAAAGAAGAAGAAGGCACAUGAGGAUCACCCAUGUAAGAA [EteRNA is fun!] | 30.8 nM
AGUUGGCGAGGAUAUACAUGAGGAUCACCCAUGUGAGAGAAAUAAGUGAGAAAGAAAAGUAGAAGGCGCUAACA [JL Lego Mod 18] | 164 nM
AACUGGGCAGGAUAUACAUGAGGAUCACCCAUGUAAAGAAAAGAAAGAUCCGAGGAAAGUAGAAGGGCCUGGAA [Variant 4 of Mod 1 of Ex3 sub 3, by Tesla's Dusciple Round 1] | 91.3 nM
CCCAUGUCAGGAUAUCAGUAGUAAAAAAAAAAAAUUACUACUGAGAAGGGACAUGAGGAUCACCCAUGUCACUU [EX4 320: Super Stable 20] | 53.2 nM
AUAGGCCUAGGAUAUACAUGAGGAUCACCCAUGUUAACACUUCAAUCAAGUUAAUAGUGUAGAAGGAGGAAUAA [JR_Exc003_Sub308] | 31.5 nM
